Measured values: publication PMC4154873, “Delineation of Interfaces on Human Alpha-Defensins Critical for Human Adenovirus and Human Papillomavirus Inhibition” (PLoS Pathogens, 2014)
Where a SMILES comes first, the peptide text is derived from it. Bridges are numbered along the chain shown (N, C = ends).

Experiments:
[1] = target: rPenton, recombinant penton capsomere of human AdV-5 fiber and penton base (human AdV-5); assay: SPR
[2] = target: T1, rPenton (fiber and penton base) (Human adenovirus C serotype 5, UniProt P11818+P12538); assay: biochemical; assay type: binding, human AdV-5; settings: for Kd: SPR Biacore T200, CM5 chip, 2115 RU rPenton, 25°C, HBS EP+ pH 7.4, steady-state fit of RU at 80 sec association, 3 µM to 111 nM, best-fit ± SE
T1 construct: enterokinase recognition site 5′ of the full-length human AdV5 penton base (PB) gene; The baculovirus expression system was used to generate full-length human AdV-5 fiber; enterokinase recognition site (pRSET-A leader) (N); 6xHis followed by Tev protease recognition site (N, cleaved yes); made in house; host or cells: PB: E. coli BL21-CodonPlus (DE3)-RIPL; fiber: HighFive insect cells (baculovirus)
Protocol: (§1) Experiments were performed on a Biacore T200 system (Biacore, GE Healthcare) at 25°C in HBS EP+ running buffer (9.5 mM HEPES, 142.5 mM NaCl, 2.85 mM EDTA, 0.05% surfactant P20, pH 7.4). The first flow cell on a CM5 sensor chip was reserved to measure background binding, while additional cells were used to immobilize fiber, PB, and rPenton by amine-coupling chemistry. A target density of 2000 resonance units (RU) was selected for rPenton, and for Figure 3D, an equal number of fiber (708 RU) and PB (1292 RU) were also targeted for immobilization. The final RUs immobilized were: 2115 RU rPenton, 889 RU fiber, and 1061 RU PB. Analyte was injected to the flow cells at a rate of 11 µl/min and binding was measured for 3 min, followed by measuring dissociation for 5 min in analyte-free running buffer. The flow cells were regenerated with two 30 s pulses of 10 mM HCl at 11 µl/min separated by 30 s in running buffer. After regeneration, the flow cells were stabilized in running buffer for 2 min before injection of the next analyte. Data analysis was performed using Biacore T200 evaluation software and Prism (version 5.0d).
Affinity (KD) and Bmax were derived by fitting RU values at 80 s post-injection using the Steady State Surface Bound Affinity model in Biacore T200 Evaluation software. Stoichiometry (Sm) of HD5 bound to rPenton at saturation was calculated using the following equation: [drawing 1] (1)

[3] = target: human AdV-5 penton base (human AdV-5); assay: SEC; analytical size exclusion chromatography, Superdex 200 10/300 GL; data not shown
[4] = tested on: AdV5.eGFP; assay: Neutralization of AdV5.eGFP pre-bound to A549 cells before addition of HNP1; assay type: cell-based, human AdV-5; settings: virus pre-bound to cells, versus wild type HNP1
Protocol: A549 cell monolayers were infected with serial dilutions of AdV5.eGFP in black wall, clear bottom 96-well plates (Perkin-Elmer, San Jose, CA). Total monolayer fluorescence was quantified with a Typhoon 9400 variable mode imager (GE Healthcare, Piscataway, NJ) 24–30 h post-infection. A virus concentration producing 50–80% maximal signal was chosen for inhibition studies.
Serum-free DMEM (SFM) alone or containing increasing concentrations of wild type or mutant HD5 was incubated with purified AdV5.eGFP for 45 min on ice. The mixture (35 µl/well) was added to a confluent monolayer of A549 cells that had been washed twice in SFM. Cells were then incubated at 37°C for 2 h with rocking, washed, and cultured with complete DMEM for 24–30 h. Plates were scanned for eGFP signal as above, and background-subtracted total well fluorescence was quantified using ImageJ software [36]. […] For assays with HNP1, virus alone in SFM was pre-incubated on a confluent monolayer of A549 cells with rocking for 45 min at 4°C. Cells were then washed twice with chilled SFM, and SFM alone or containing increasing concentrations of wild type or mutant HNP1 was added. Cells were incubated for 45 min at 4°C and then shifted to 37°C. After 2 h, cells were washed twice with complete media and incubated a further 24–30 h at 37°C until eGFP signal was quantified as above.

[5] = tested on: AdV5.eGFP; settings: cited from earlier work
[6] = target: human AdV-5 fiber (human AdV-5); assay: SEC; analytical size exclusion chromatography, Superdex 200 10/300 GL; data not shown
[7] = target: human AdV-5 fiber (human AdV-5); assay: immunoblot of samples heated or not before SDS-PAGE; fiber samples heated or not for 5 min to 95°C, 4D2 anti-fiber mAb; data not shown
[8] = tested on: fiber; assay: SPR binding to immobilized fiber; set-up: species or system human AdV-5; settings: CAR-Ig at 35 nM, 889 RU fiber
Protocol: as §1

[9] = tested on: penton base (PB); assay: SPR binding to immobilized penton base; set-up: species or system human AdV-5; settings: CAR-Ig at 35 nM, 1061 RU PB
Protocol: as §1

T1 sequence (P11818 whole entry): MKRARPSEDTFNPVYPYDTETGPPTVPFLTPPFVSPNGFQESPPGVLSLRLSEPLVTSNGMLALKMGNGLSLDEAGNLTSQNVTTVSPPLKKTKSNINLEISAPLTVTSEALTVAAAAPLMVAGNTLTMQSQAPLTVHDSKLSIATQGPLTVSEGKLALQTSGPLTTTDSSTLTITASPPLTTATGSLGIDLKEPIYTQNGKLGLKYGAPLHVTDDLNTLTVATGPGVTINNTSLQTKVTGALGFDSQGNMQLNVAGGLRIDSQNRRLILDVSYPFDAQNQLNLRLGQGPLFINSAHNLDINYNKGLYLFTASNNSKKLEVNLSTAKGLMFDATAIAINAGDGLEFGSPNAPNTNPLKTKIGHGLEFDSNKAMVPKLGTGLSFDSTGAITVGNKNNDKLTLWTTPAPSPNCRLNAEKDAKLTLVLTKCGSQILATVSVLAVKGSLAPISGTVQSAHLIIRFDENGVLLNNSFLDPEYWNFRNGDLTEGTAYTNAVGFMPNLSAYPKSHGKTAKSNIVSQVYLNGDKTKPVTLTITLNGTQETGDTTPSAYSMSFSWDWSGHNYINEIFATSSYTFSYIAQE
T1 sequence (P12538 whole entry): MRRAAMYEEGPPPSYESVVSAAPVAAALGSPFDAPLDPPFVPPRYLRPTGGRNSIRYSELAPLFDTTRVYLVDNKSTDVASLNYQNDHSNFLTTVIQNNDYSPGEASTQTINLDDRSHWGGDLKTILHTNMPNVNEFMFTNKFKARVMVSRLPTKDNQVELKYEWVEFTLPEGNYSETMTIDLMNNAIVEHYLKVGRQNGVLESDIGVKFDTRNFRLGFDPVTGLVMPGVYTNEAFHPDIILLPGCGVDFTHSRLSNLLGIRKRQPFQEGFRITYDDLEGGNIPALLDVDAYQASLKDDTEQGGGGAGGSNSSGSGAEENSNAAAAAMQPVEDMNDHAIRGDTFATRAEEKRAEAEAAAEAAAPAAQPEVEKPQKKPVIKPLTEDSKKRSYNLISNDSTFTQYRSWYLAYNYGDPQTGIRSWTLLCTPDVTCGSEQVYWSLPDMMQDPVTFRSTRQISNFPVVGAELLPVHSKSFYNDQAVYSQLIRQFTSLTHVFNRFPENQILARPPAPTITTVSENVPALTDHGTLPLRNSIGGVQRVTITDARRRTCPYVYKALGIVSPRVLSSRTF
Chain of rPenton, recombinant penton capsomere of human AdV-5 fiber and penton base (human AdV-5) (P11818 whole entry, chain 1 of 2): as the sequence (P11818 whole entry) above
Chain of rPenton, recombinant penton capsomere of human AdV-5 fiber and penton base (human AdV-5) (P12538 whole entry, chain 2 of 2, further chain): as the sequence (P12538 whole entry) above

**Q.** With HD5 L29A (peptide) as the molecule, how does the Kd [1] read?
**A.** 3.82 µM

**Q.** For `CC[C@H](C)[C@@H]1NC(=O)[C@H](CCC(=O)O)NC(=O)[C@@H]2CSSC[C@@H]3NC(=O)[C@H](Cc4ccc(O)cc4)NC(=O)[C@@H](NC(=O)[C@@H](NC(=O)[C@H](C)N)[C@@H](C)O)CSSC[C@@H](C(=O)N[C@@H](CCCNC(=N)N)C(=O)O)NC(=O)[C@H](CSSC[C@H](NC(=O)[C@H](CCCNC(=N)N)NC(=O)CNC(=O)[C@H]([C@@H](C)O)NC(=O)[C@H](CCCNC(=N)N)NC3=O)C(=O)N[C@@H](C)C(=O)N[C@@H]([C@@H](C)O)C(=O)N[C@@H](CCCNC(=N)N)C(=O)N[C@@H](CCC(=O)O)C(=O)N[C@@H](CO)C(=O)N[C@@H](CC(C)C)C(=O)N[C@@H](CO)C(=O)NCC(=O)N[C@@H](C(C)C)C(=O)N2)NC(=O)[C@H](CC(C)C)NC(=O)[C@H](CCCNC(=N)N)NC(=O)[C@H](Cc2ccc(O)cc2)NC(=O)[C@H](CC(C)C)NC(=O)[C@H](CCCNC(=N)N)NC(=O)CNC(=O)[C@H](CO)NC1=O` [HD5, human α-defensin 5, reference compound] (H-ATCYCRTGRCATRESLSGVCEISGRLYRLCCR-OH; disulfide 3-31, 5-20, 10-30), which Kd [2] is on record?
**A.** 1.81 ± 0.22 µM

**Q.** Which stoichiometry N [3] does the source give for “human AdV-5 penton base (natural protein)” here?
**A.** 5

**Q.** Which “Effect of HNP1 mutation on anti-AdV activity (in words)” value [4] does the source give for HNP1 W26A here?
**A.** most deleterious

**Q.** With human neutrophil peptide 1 [HNP1] as the molecule, how does the “Ability to neutralize AdV infection compared to HD5 (in words)” value [5] read?
**A.** reduced ability to neutralize AdV infection

**Q.** Which Kd [2] does the source give for `CC[C@H](C)[C@@H]1NC(=O)[C@H](CCC(=O)O)NC(=O)[C@@H]2CSSC[C@@H]3NC(=O)[C@H](Cc4ccc(O)cc4)NC(=O)[C@@H](NC(=O)[C@@H](NC(=O)[C@H](C)N)[C@@H](C)O)CSSC[C@@H](C(=O)N[C@@H](CCCNC(=N)N)C(=O)O)NC(=O)[C@H](CSSC[C@H](NC(=O)[C@H](CCCNC(=N)N)NC(=O)CNC(=O)[C@H]([C@@H](C)O)NC(=O)[C@H](CCCNC(=N)N)NC3=O)C(=O)N[C@@H](C)C(=O)N[C@@H]([C@@H](C)O)C(=O)N[C@@H](CCCNC(=N)N)C(=O)N[C@@H](CCC(=O)O)C(=O)N[C@@H](CO)C(=O)N[C@@H](CC(C)C)C(=O)N[C@@H](CO)C(=O)NCC(=O)N[C@@H](C(C)C)C(=O)N2)NC(=O)[C@H](CC(C)C)NC(=O)[C@H](CCCNC(=N)N)NC(=O)[C@H](C)NC(=O)[C@H](CC(C)C)NC(=O)[C@H](CCCNC(=N)N)NC(=O)CNC(=O)[C@H](CO)NC1=O` [Y27A] (H-ATCYCRTGRCATRESLSGVCEISGRLARLCCR-OH; disulfide 3-31, 5-20, 10-30) here?
**A.** 3.39 ± 0.27 µM

**Q.** Which Kd [2] does the source give for `CC[C@H](C)[C@@H]1NC(=O)[C@H](CCC(=O)O)NC(=O)[C@@H]2CSSC[C@@H]3NC(=O)[C@H](Cc4ccc(O)cc4)NC(=O)[C@@H](NC(=O)[C@@H](NC(=O)[C@H](C)N)[C@@H](C)O)CSSC[C@@H](C(=O)N[C@@H](CCCNC(=N)N)C(=O)O)NC(=O)[C@H](CSSC[C@H](NC(=O)[C@H](CCCNC(=N)N)NC(=O)CNC(=O)[C@H]([C@@H](C)O)NC(=O)[C@H](CCCNC(=N)N)NC3=O)C(=O)N[C@@H](C)C(=O)N[C@@H]([C@@H](C)O)C(=O)N[C@@H](CCCNC(=N)N)C(=O)N[C@@H](CCC(=O)O)C(=O)N[C@@H](CO)C(=O)N[C@@H](CC(C)C)C(=O)N[C@@H](CO)C(=O)NCC(=O)N[C@@H](C(C)C)C(=O)N2)NC(=O)[C@H](C)NC(=O)[C@H](CCCNC(=N)N)NC(=O)[C@H](Cc2ccc(O)cc2)NC(=O)[C@H](CC(C)C)NC(=O)[C@H](CCCNC(=N)N)NC(=O)CNC(=O)[C@H](CO)NC1=O` [L29A] (H-ATCYCRTGRCATRESLSGVCEISGRLYRACCR-OH; disulfide 3-31, 5-20, 10-30) here?
**A.** 3.82 ± 0.3 µM

**Q.** Which results are given for human AdV-5 fiber (natural protein)?
**A.** stoichiometry N [6]: 3; stoichiometry N [7]: 3

**Q.** With HD5 Y27A (peptide) as the molecule, how does the Kd [1] read?
**A.** 3.39 µM

B1: CAR-Ig: soluble form of the AdV receptor fused to the constant region of rabbit Ig (protein)
chain: LSITTPEEMIEKAKGETAYLPCKFTLSPEDQGPLDIEWLISPADNQKVDQVIILYSGDKIYDDYYPDLKGRVHFTSNDLKSGDASINVTNLQLSDIGTYQCKVKKAPGVANKKIHLVVLVKPSGARCYVDGSEEIGSDFKIKCEPKEGSLPLQYEWQKLSDSQKMPTSWLAEMTSSVISVKNASSEYSGTYSCTVRNRVGSDQCLLRLNVVPPSNK
modifications: left off: Fc (rabbit IgG heavy chain), end not stated, kept
**Q.** Which results are given for B1?
**A.** Binding to immobilized fiber (in words) [8]: able to bind; Binding to immobilized rPenton (in words) [2]: able to bind; Binding to immobilized PB (in words) [9]: unable to bind

**Q.** Which Kd [1] does the source give for ATCYCRTGRCATRESLSGVCEISGRLYRLCCR [human α-defensin 5 (HD5), wild type] here?
**A.** 1.81 µM

**Q.** What about the stoichiometry N [1] of the same molecule?
**A.** 210
